Data on 19 molecules can be found in publication PMC4072508, “Genome-Wide Prediction and Validation of Peptides That Bind Human Prosurvival Bcl-2 Proteins” (PLoS Computational Biology, 2014).

What all share (assay): peptide SPOT array, c-Myc-tagged receptor at 1 uM or 100 nM, anti-c-Myc-Cy3
The target in one test is Bcl-2, P10415.
The next test deals with T1, Bfl-1, Q16548.
T1 chain: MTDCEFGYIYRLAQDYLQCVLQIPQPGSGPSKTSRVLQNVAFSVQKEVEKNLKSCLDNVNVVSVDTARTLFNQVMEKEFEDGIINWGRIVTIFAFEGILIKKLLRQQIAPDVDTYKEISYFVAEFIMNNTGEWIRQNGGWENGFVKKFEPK

In a further test the target is T2, Bcl-w, Q92843.
T2 chain: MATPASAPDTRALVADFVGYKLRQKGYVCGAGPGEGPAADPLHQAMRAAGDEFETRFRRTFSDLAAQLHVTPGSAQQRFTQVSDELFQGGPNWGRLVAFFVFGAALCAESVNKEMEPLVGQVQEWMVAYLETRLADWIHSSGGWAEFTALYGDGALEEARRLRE

A further test concerns the target Bcl-xL, Q07817.
For the next test, the target named is T3, Mcl-1, Q07820.
T3 chain: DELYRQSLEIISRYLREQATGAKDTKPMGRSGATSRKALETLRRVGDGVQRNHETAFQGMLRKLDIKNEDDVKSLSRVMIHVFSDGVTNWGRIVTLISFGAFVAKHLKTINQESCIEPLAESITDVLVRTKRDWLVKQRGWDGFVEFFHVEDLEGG

Sequence of Bcl-xL, Q07817 (Q07817 1-209): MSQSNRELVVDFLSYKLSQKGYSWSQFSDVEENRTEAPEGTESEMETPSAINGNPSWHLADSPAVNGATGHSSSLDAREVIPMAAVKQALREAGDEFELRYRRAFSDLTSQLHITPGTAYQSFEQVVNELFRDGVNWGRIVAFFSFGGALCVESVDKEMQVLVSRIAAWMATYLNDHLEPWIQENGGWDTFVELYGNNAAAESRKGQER

B1: CLU (peptide)
chain: CSTNNPSQAKLRRELDESLQVAERLT
On to B1, for which the SPOT signal as a fraction of Bim BH3's signal on the same receptor and array was determined as 0.01 with Bcl-2, P10415; 0.02 with Bfl-1, Q16548; 0.02 with Bcl-w, Q92843; 0.03 in the test with Bcl-xL, Q07817; 0.02 with Mcl-1, Q07820.

B2: PYCARD (peptide)
chain: DLTDKLVSFYLETYGAELTANVLRDM
As to B2, the SPOT signal as a fraction of Bim BH3's signal on the same receptor and array in the test with Bcl-2, P10415 amounted to 0.01; with Bfl-1, Q16548 it was 0.02; in the test with Bcl-w, Q92843, 0.03; in the test with Bcl-xL, Q07817, 0.04; in the test with Mcl-1, Q07820 it was 0.07.

B3: NAE1 (peptide)
chain: AAVGNHVAKLLQSIGQAPESISEKEL
Regarding B3, the SPOT signal as a fraction of Bim BH3's signal on the same receptor and array was determined as 0.01 with Bcl-2, P10415; 0.02 in the test with Bfl-1, Q16548; 0.02 with Bcl-w, Q92843; 0.03 with Bcl-xL, Q07817; 0.02 with Mcl-1, Q07820.

B4: RNF8 (peptide)
chain: GDRAGGRSWCLRRVGMSAGWLLLEDG
For B4, the SPOT signal as a fraction of Bim BH3's signal on the same receptor and array was found to be 0.04 with Bcl-2, P10415; 0.13 with Bfl-1, Q16548; 0.07 with Bcl-w, Q92843; 0.12 with Bcl-xL, Q07817; 0.06 with Mcl-1, Q07820.

B5: ATP6AP2 (peptide)
chain: RDASKILVDALQKFADDMYSLYGGNA
In the case of B5, the SPOT signal as a fraction of Bim BH3's signal on the same receptor and array amounted to 0.01 with Bcl-2, P10415; 0.02 in the test with Bfl-1, Q16548; 0.05 with Bcl-w, Q92843; 0.03 with Bcl-xL, Q07817; 0.02 with Mcl-1, Q07820.

B6: PION (peptide)
chain: DISLSNSGFKLVNFGCDYHQYRDKFS
For the molecule B6, the SPOT signal as a fraction of Bim BH3's signal on the same receptor and array with Bcl-2, P10415 came to 0.09; in the test with Bfl-1, Q16548, 0.38; with Bcl-w, Q92843, 0.2; with Bcl-xL, Q07817, 0.39; with Mcl-1, Q07820, 0.14.

B7: DCAF8L1 (peptide)
chain: TIHFNQRGTRLASSGDDLRVIVWDWV
For the molecule B7, the SPOT signal as a fraction of Bim BH3's signal on the same receptor and array was 0.02 in the test with Bcl-2, P10415; 0.04 with Bfl-1, Q16548; 0.03 with Bcl-w, Q92843; 0.06 with Bcl-xL, Q07817; 0.04 in the test with Mcl-1, Q07820.

B8: MAGEB2 (peptide)
chain: IKKSVTKGEMLKIVGKRFREHFPEIL
On to B8, for which the SPOT signal as a fraction of Bim BH3's signal on the same receptor and array in the test with Bcl-2, P10415 is 0.15; with Bfl-1, Q16548, 0.45; in the test with Bcl-w, Q92843, 0.59; with Bcl-xL, Q07817 it was 0.52; in the test with Mcl-1, Q07820 it was 0.27.

B9: CASP5 (peptide)
chain: DNHKKKTVKMLEYLGKDVLHGVFNYL
With B9, the SPOT signal as a fraction of Bim BH3's signal on the same receptor and array with Bcl-2, P10415 is 0.05; in the test with Bfl-1, Q16548, 0.19; in the test with Bcl-w, Q92843 it was 0.21; with Bcl-xL, Q07817, 0.28; with Mcl-1, Q07820, 0.11.

B10: GAS2 (peptide)
chain: FMEKLDNGALLCQLAETMQEKFKESM
As for B10, the SPOT signal as a fraction of Bim BH3's signal on the same receptor and array with Bcl-2, P10415 was determined as 0.01; with Bfl-1, Q16548 it was 0.02; with Bcl-w, Q92843 it was 0.02; in the test with Bcl-xL, Q07817, 0.03; with Mcl-1, Q07820, 0.02.

B11: USP5 (peptide)
chain: MVLDPSLAEHLSHFGIDMLKMQKTDK
As to B11, the SPOT signal as a fraction of Bim BH3's signal on the same receptor and array with Bcl-2, P10415 worked out at 0.02; with Bfl-1, Q16548, 0.07; with Bcl-w, Q92843, 0.03; in the test with Bcl-xL, Q07817, 0.07; with Mcl-1, Q07820 it was 0.04.

B12: PXT1 (peptide)
chain: EEIIHKLAMQDRHIGDNIDHRMVRED
Regarding B12, the SPOT signal as a fraction of Bim BH3's signal on the same receptor and array stood at 0.01 in the test with Bcl-2, P10415; 0.02 in the test with Bfl-1, Q16548; 0.02 with Bcl-w, Q92843; 0.02 with Bcl-xL, Q07817; 0.03 with Mcl-1, Q07820.

B13: NOL8 (peptide)
chain: KYDPSKYCHNLKKIGEDFSNTIPISS
For the molecule B13, the SPOT signal as a fraction of Bim BH3's signal on the same receptor and array was 0.02 with Bcl-2, P10415; 0.05 in the test with Bfl-1, Q16548; 0.05 with Bcl-w, Q92843; 0.57 with Bcl-xL, Q07817; 0.03 with Mcl-1, Q07820.

B14: SNTA1 (peptide)
chain: SATHDEAVQVLKKTGKEVVLEVKYMK
As for B14, the SPOT signal as a fraction of Bim BH3's signal on the same receptor and array amounted to 0.02 with Bcl-2, P10415; 0.05 with Bfl-1, Q16548; 0.08 with Bcl-w, Q92843; 0.15 in the test with Bcl-xL, Q07817; 0.06 with Mcl-1, Q07820.

B15: ACAP3 (peptide)
chain: LGRTGQVCLFLKRGADQHALDQEQRD
As to B15, the SPOT signal as a fraction of Bim BH3's signal on the same receptor and array turned out to be 0.06 with Bcl-2, P10415; 0.16 with Bfl-1, Q16548; 0.11 with Bcl-w, Q92843; 0.41 in the test with Bcl-xL, Q07817; 0.08 with Mcl-1, Q07820.

B16: NCKAP1 (peptide)
chain: KEFLALASSSLLKIGQETDKTTTRNR
As to B16, the SPOT signal as a fraction of Bim BH3's signal on the same receptor and array with Bcl-2, P10415 was 0.03; in the test with Bfl-1, Q16548 it was 0.23; with Bcl-w, Q92843 it was 0.26; in the test with Bcl-xL, Q07817, 0.26; with Mcl-1, Q07820, 0.12.

B17: NOL4 (peptide)
chain: VAGYRESAAFLLRSADELENLILQQN
On to B17, for which the SPOT signal as a fraction of Bim BH3's signal on the same receptor and array with Bcl-2, P10415 came out at 0.01; with Bfl-1, Q16548, 0.02; with Bcl-w, Q92843 it was 0.03; in the test with Bcl-xL, Q07817 it was 0.04; with Mcl-1, Q07820, 0.04.

B18: C8orf37 (peptide)
chain: TNISWRACDHLRCIACDFLVVSYDDY
On to B18, for which the SPOT signal as a fraction of Bim BH3's signal on the same receptor and array is 0.01 with Bcl-2, P10415; 0.02 with Bfl-1, Q16548; 0.15 with Bcl-w, Q92843; 0.08 with Bcl-xL, Q07817; 0.08 in the test with Mcl-1, Q07820.

B19: MTBP (peptide)
chain: ADLYEEAAENLHQLSDKLPAPGRAMV
On to B19, for which the SPOT signal as a fraction of Bim BH3's signal on the same receptor and array with Bcl-2, P10415 turned out to be 0.01; with Bfl-1, Q16548, 0.02; with Bcl-w, Q92843 it was 0.02; with Bcl-xL, Q07817 it was 0.02; with Mcl-1, Q07820, 0.02.
